Earlier results, collected in patent US20250009916A1, “COMBINATION THERAPY FOR TREATING LUNG CANCER” (Novartis AG, priority 2021, published 2025).
Read-outs that look alike come from different tables or passages of the source.

Experiments:
[1] = in vivo; cited from earlier work
[2] = tested on: GEP-NET; settings: cited from earlier work
[3] = 100 mCi dose; patients pretreated, with risk factors or abnormal renal and bone marrow function; cited from earlier work
[4] = tested on: ES-SCLC; settings: ES-SCLC patients, first-line, IMPower133; cited from earlier work
[5] = tested on: ES-SCLC; settings: ES-SCLC patients, durvalumab arm, CASPIAN; cited from earlier work
[6] = tested on: advanced solid tumors; settings: cited from earlier work
[7] = cited from earlier work
[8] = tested on: SCLC; settings: cited from earlier work
[9] = cited from earlier work; remark: listed apart in the source
[10] = 4 doses of 7.4 GBq/200 mCi every 8 weeks, GEP-NET patients
[11] = 200-mg fixed dose cohort, evaluable n=13
[12] = 17 SCLC patients, plus cisplatin/carboplatin and etoposide Q3W

Substance: Lutetium (^177Lu) oxodotreotide [[^177Lu] Lu-DOTA-TATE]
- elimination route [1]: mainly via the renal route
- interaction with drug transporters [1]: does not interact with drug transporters
- metabolization [1]: very low (if any)
- progression free survival and quality of life with approved regimen [2, 10]: significant improvement of progression free survival (PFS) and quality of life
- safety of approved regimen [2, 10]: safe
- median overall survival ([2]; GEP-NET patients, phase 3 NETTER-1): 48 months
- safety of additional doses exceeding 800 mCi cumulative dose ([2]; literature): without additional safety signals
- tolerability [3]: favorable tolerability

Substance: atezolizumab: immune checkpoint inhibitor antibody (Roche)
- PFS [4]: 5.2 months

Substance: durvalumab: PD-L1 inhibitor
- PFS [5]: 5.1 months

Substance: tislelizumab: anti-PD-1 monoclonal antibody (Beigene), heavy chain SEQ ID NO: 1, light chain SEQ ID NO: 5
- safety signals in combination with standard-of-care chemotherapies ([6]; first-line lung cancer): did not lead to new safety signals
- safety profile ([6]; monotherapy or combined with platinum-based chemotherapy): manageable safety profile
- rates of treatment-related adverse events and serious adverse events across regimens ([7]; 2 mg/kg and 5 mg/kg, once every 2 weeks and once every 3 weeks): comparable
- treatment-related adverse events versus body-weight-based cohorts ([7]; 200-mg fixed dose cohort, Phase Ia Part 3): no unexpected treatment-related adverse events
- patients with BOR of partial response (PR) [7, 11]: 23%
- patients with BOR of progressive disease (PD) [7, 11]: 46%
- patients with BOR of stable disease [7, 11]: 31%
- ORR [8, 12]: 77%
- median OS [8, 12]: 15.6 months
- median PFS [8, 12]: 6.9 months
- antitumor activity ([8]; tislelizumab 200 mg with platinum-based chemotherapy, including SCLC group): Encouraging antitumor activity
- tolerability ([8]; tislelizumab 200 mg with platinum-based chemotherapy): generally well tolerated
- serum exposure ([9]; 200-mg dose): fell between serum exposure observed after 2 mg/kg and 5 mg/kg doses
- CL ([9]; Phase Ia): independent of body weight, ethnicity, and gender
